# B1: Odr10 labelled with Rluc at the C-terminus (receptor)
# chain: MSGELWITLVDTADIVGVTLTFCVNIVLLGLLKTRGKNLGTYKYLMAFFSVFSIFYAIIEFILRPIMHIENTTFFLISRKRFNYSTKLGKINSAFYCACFATSFVVSGVHFVYRYFATCKPNLLRLFNLPTLLLWPLGCSVPVTMWASVSYFLYPDTEYTEAAVTNVLNNHYNWIKKENVSYIAYVYYQYENGVRHIYLKNLLGCFVHYFVMSMTFVVMFYCGYATWKTMNEHKDVSDRTRALQKQLFKALVLQTLIPTIFMYAPTGVMFIAPFFDVNLNANANFIVFCSFLYPGLDPLILILIIRDFRRTIFNFLCGKKNSVDESRSTTRANLSQVPTMTSKVYDPEQRKRMITGPQWWARCKQMNVLDSFINYYDSEKHAENAVIFLHGNAASSYLWRHVVPHIEPVARCIIPDLIGMGKSGKSGNGSYRLLDHYKYLTAWFELLNLPKKIIFVGHDWGACLAFHYSYEHQDKIKAIVHAESVVDVIESWDEWPDIEEDIALIKSEEGEKMVLENNFFVETMLPSKIMRKLEPEEFAAYLEPFKEKGEVRRPTLSWPREIPLVKGGKPDVVQIVRNYNAYLRASDDLPKMFIESDPGFFSNAIVEGAKKFPNTEFVKVKGLHFSQEDAPDEMGKYIKSFVERVLKNEQ
# notes: Fusion protein expressed in S. cerevisiae Invsc1; Assayed in living yeast cells (BRET2) and as digitonin-solubilised crude membrane (co-immunoprecipitation); also called odr-10-Rluc; Odr10-Rluc
# Target: T1, Odr10 labelled with GFP2 at the C-terminus (C. elegans)
# T1 construct: Fusion protein expressed in S. cerevisiae Invsc1; Assayed in living yeast cells (BRET2) and as digitonin-solubilised crude membrane (co-immunoprecipitation); also called odr-10-GFP2; Odr10-GFP2
# Experiment: co-immunoprecipitation with anti-GFP antibody from a mixture of solubilised membranes that expressed each fusion separately (control)
# Procedure: Membrane protein solubilisation and immunoprecipitation procedures were modified according to the method described by Ayoub et al. (2002). Crude membrane was solubilised with 0.5% digitonin (Sigma) and this mixture was stirred for 3 h at 4° C. Non-solubilised membrane proteins were removed by centrifugation at 18,000×g for 30 mins at 4° C. The digitonin concentration was adjusted to 0.2% using cold Buffer B and the polyclonal anti-GFP antibodies (Sapphire Bioscience, Cat No 120-29000) were added to a final dilution of 1:1000. Immune complex formation was allowed to proceed for 12 h at 4° C. with gentle agitation and Protein A-agarose suspension (Sigma) was added to a final volume of 1:10 (agarose suspension:sample) for incubation for another 6 h with gentle agitation at 4° C. After centrifugation for 1 min at 5000×g, supernatant was decanted and the agarose beads washed five times with 0.5 ml of cold Buffer C (Buffer B+0.2% digitonin). Precipitates were analysed by assessing luciferase activity in a luminometer (BMGLabtech) using coelenterazine as substrate (Biosynth AG, Switzerland).
# Oligomerisation of Odr-10 in the living yeast cells was confirmed by the pairwise expression of receptor-Rluc and -GFP² fusion, followed by precipitation using anti-green fluorescence protein antibodies and measuring co-immunoprecipitated luciferase activity. […]
binder,measurement,value
B1,luciferase activity recovered relative to co-expressed odr-10-GFP^2 and odr-10-Rluc,< 20%
